# Measurements published in patent US20030040461.
# T1: purified recombinant SLP-76
# T1 sequence (Q13094 1-533, species assumed, looked up): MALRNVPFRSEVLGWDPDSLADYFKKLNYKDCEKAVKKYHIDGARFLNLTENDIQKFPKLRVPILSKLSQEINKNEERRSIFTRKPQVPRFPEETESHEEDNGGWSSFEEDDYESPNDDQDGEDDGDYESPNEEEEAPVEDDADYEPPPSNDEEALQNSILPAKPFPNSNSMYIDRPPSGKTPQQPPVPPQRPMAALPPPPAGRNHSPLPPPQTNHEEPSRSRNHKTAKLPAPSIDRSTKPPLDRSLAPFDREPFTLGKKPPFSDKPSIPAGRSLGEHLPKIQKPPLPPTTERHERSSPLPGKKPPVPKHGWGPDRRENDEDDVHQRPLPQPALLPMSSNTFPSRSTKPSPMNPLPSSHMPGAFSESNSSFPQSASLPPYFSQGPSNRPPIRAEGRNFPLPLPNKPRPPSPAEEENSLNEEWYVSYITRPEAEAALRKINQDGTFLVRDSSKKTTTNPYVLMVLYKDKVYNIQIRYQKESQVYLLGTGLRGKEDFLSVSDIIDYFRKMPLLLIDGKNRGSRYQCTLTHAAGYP
# B1: FLAG-BTK wild-type (murine BTK with N-terminal 3XFLAG tag) (enzyme)
# chain: MAAVILESIFLKRSQQKKKTSPLNFKKRLFLLTVHKLSYYEYDFERGRRGSKKGSIDVEKITCVETVIPEKNPPPERQIPRRGEESSEMEQISIIERFPYPFQVVYDEGPLYVFSPTEELRKRWIHQLKNVIRYNSDLVQKYHPCFWIDGQYLCCSQTAKNAMGCQILENRNGSLKPGSSHRKTKKPLPPTPEEDQILKKPLPPEPTAAPISTTELKKVVALYDYMPMNANDLQLRKGEEYFILEESNLPWWRARDKNGQEGYIPSNYITEAEDSIEMYEWYSKHMTRSQAEQLLKQEGKEGGFIVRDSSKAGKYTVSVFAKSTGEPQGVIRHYVVCSTPQSQYYLAEKHLFSTIPELINYHQHNSAGLISRLKYPVSKQNKNAPSTAGLGYGSWEIDPKDLTFLKELGTGQFGVVKYGKWRGQYDVAIKMIREGSMSEDEFIEEAKVMMNLSHEKLVQLYGVCTKQRPIFIITEYMANGCLLNYLREMRHRFQTQQLLEMCKDVCEAMEYLESKQFLHRDLAARNCLVNDQGVVKVSDFGLSRYVLDDEYTSSVGSKFPVRWSPPEVLMYSKFSSKSDIWAFGVLMWEIYSLGKMPYERFTNSETAEHIAQGLRLYRPHLASERVYTIMYSCWHEKADERPSFKILLSNILDVMDEES
# modifications: N-terminal 3xFLAG tag
# B2: FLAG-BTK R28C (xid mutant of murine BTK with N-terminal 3XFLAG tag) (enzyme)
# chain: MAAVILESIFLKRSQQKKKTSPLNFKKCLFLLTVHKLSYYEYDFERGRRGSKKGSIDVEKITCVETVIPEKNPPPERQIPRRGEESSEMEQISIIERFPYPFQVVYDEGPLYVFSPTEELRKRWIHQLKNVIRYNSDLVQKYHPCFWIDGQYLCCSQTAKNAMGCQILENRNGSLKPGSSHRKTKKPLPPTPEEDQILKKPLPPEPTAAPISTTELKKVVALYDYMPMNANDLQLRKGEEYFILEESNLPWWRARDKNGQEGYIPSNYITEAEDSIEMYEWYSKHMTRSQAEQLLKQEGKEGGFIVRDSSKAGKYTVSVFAKSTGEPQGVIRHYVVCSTPQSQYYLAEKHLFSTIPELINYHQHNSAGLISRLKYPVSKQNKNAPSTAGLGYGSWEIDPKDLTFLKELGTGQFGVVKYGKWRGQYDVAIKMIREGSMSEDEFIEEAKVMMNLSHEKLVQLYGVCTKQRPIFIITEYMANGCLLNYLREMRHRFQTQQLLEMCKDVCEAMEYLESKQFLHRDLAARNCLVNDQGVVKVSDFGLSRYVLDDEYTSSVGSKFPVRWSPPEVLMYSKFSSKSDIWAFGVLMWEIYSLGKMPYERFTNSETAEHIAQGLRLYRPHLASERVYTIMYSCWHEKADERPSFKILLSNILDVMDEES
# modifications: N-terminal 3xFLAG tag
# B3: FLAG-BTK E41K (gain of function mutant of murine BTK with N-terminal 3XFLAG tag) (enzyme)
# chain: MAAVILESIFLKRSQQKKKTSPLNFKKRLFLLTVHKLSYYKYDFERGRRGSKKGSIDVEKITCVETVIPEKNPPPERQIPRRGEESSEMEQISIIERFPYPFQVVYDEGPLYVFSPTEELRKRWIHQLKNVIRYNSDLVQKYHPCFWIDGQYLCCSQTAKNAMGCQILENRNGSLKPGSSHRKTKKPLPPTPEEDQILKKPLPPEPTAAPISTTELKKVVALYDYMPMNANDLQLRKGEEYFILEESNLPWWRARDKNGQEGYIPSNYITEAEDSIEMYEWYSKHMTRSQAEQLLKQEGKEGGFIVRDSSKAGKYTVSVFAKSTGEPQGVIRHYVVCSTPQSQYYLAEKHLFSTIPELINYHQHNSAGLISRLKYPVSKQNKNAPSTAGLGYGSWEIDPKDLTFLKELGTGQFGVVKYGKWRGQYDVAIKMIREGSMSEDEFIEEAKVMMNLSHEKLVQLYGVCTKQRPIFIITEYMANGCLLNYLREMRHRFQTQQLLEMCKDVCEAMEYLESKQFLHRDLAARNCLVNDQGVVKVSDFGLSRYVLDDEYTSSVGSKFPVRWSPPEVLMYSKFSSKSDIWAFGVLMWEIYSLGKMPYERFTNSETAEHIAQGLRLYRPHLASERVYTIMYSCWHEKADERPSFKILLSNILDVMDEES
# modifications: N-terminal 3xFLAG tag
# B4: FLAG-BTK K430R (dominant negative mutant of murine BTK with N-terminal 3XFLAG tag) (enzyme)
# chain: MAAVILESIFLKRSQQKKKTSPLNFKKRLFLLTVHKLSYYEYDFERGRRGSKKGSIDVEKITCVETVIPEKNPPPERQIPRRGEESSEMEQISIIERFPYPFQVVYDEGPLYVFSPTEELRKRWIHQLKNVIRYNSDLVQKYHPCFWIDGQYLCCSQTAKNAMGCQILENRNGSLKPGSSHRKTKKPLPPTPEEDQILKKPLPPEPTAAPISTTELKKVVALYDYMPMNANDLQLRKGEEYFILEESNLPWWRARDKNGQEGYIPSNYITEAEDSIEMYEWYSKHMTRSQAEQLLKQEGKEGGFIVRDSSKAGKYTVSVFAKSTGEPQGVIRHYVVCSTPQSQYYLAEKHLFSTIPELINYHQHNSAGLISRLKYPVSKQNKNAPSTAGLGYGSWEIDPKDLTFLKELGTGQFGVVKYGKWRGQYDVAIRMIREGSMSEDEFIEEAKVMMNLSHEKLVQLYGVCTKQRPIFIITEYMANGCLLNYLREMRHRFQTQQLLEMCKDVCEAMEYLESKQFLHRDLAARNCLVNDQGVVKVSDFGLSRYVLDDEYTSSVGSKFPVRWSPPEVLMYSKFSSKSDIWAFGVLMWEIYSLGKMPYERFTNSETAEHIAQGLRLYRPHLASERVYTIMYSCWHEKADERPSFKILLSNILDVMDEES
# modifications: N-terminal 3xFLAG tag
# System: T1, purified recombinant SLP-76
Protein,"phosphorylation of SLP 76 (incorporation of phosphotyrosine into the substrate, IP kinase assay)",kinase activity
B1,addition of immunoprecipitated wild-type BTK resulted in phosphorylation of both BTK itself and the SLP 76 target,–
B2,Addition of BTK immunoprecipitated from the xid construct cell lysate resulted in hyperphosphorylation of the SLP 76 target,the kinase activity of BTK isolated from the xid mutant stable cell pool was significantly higher (approximately 10 fold)
B3,Phosphorylation using extracts from the “gain of function” and dominant negative mutant cell contracts appeared to be reduced compared to the wild-type BTK,–
B4,Phosphorylation using extracts from the “gain of function” and dominant negative mutant cell contracts appeared to be reduced compared to the wild-type BTK,–
